Data taken from US20190338002A1 (Pieris, published 2019).

Experiments:
[1] = target: T1, rat alpha CGRP (SEQ ID NO: 82) (rat); assay: SPR, 37 C, mutein captured, CGRP analyte
T1 construct: also called rat αCGRP; rat α-CGRP
T1 peptide: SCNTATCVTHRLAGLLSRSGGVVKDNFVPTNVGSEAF
Protocol: (§1) The Biotin CAPture Kit (GE Healthcare) was used to immobilize biotinylated lipocalin muteins to a chip surface. Muteins were biotinylated using standard NHS chemistry. Undiluted Biotin CAPture Reagent (streptavidin conjugated with ss-DNA oligo) was captured on a Sensor Chip CAP with the pre-immobilized complementary ss-DNA oligo. Thereafter, biotinylated muteins at 1 μg/mL were applied for 300 s at a flow rate of 5 μL/min.
(§2) CGRP species were applied in three concentrations of 30 nM, 3 nM and 0.3 nM at a flow rate of 30 μL/min or in a single concentration of 25 nM per cycle as shown in FIG. 2. The dilutions were injected with association times of 180 s and dissociation times of 5400 sec to obtain ka and kd information. Regeneration of the chip surface was achieved by injecting 6 M Guanidinium-HCl+0.25 M NaOH (120 s) with a flow rate of 10 μL/min. Injection of regeneration solutions was followed by an extra wash step with HBS-EP+(1×; BR-1006-69; GE Healthcare) running buffer and a stabilization period of 120 s.
(§3) The data were double-referenced by subtraction of the corresponding signals measured for the control channel (loaded with Biotin CAPture reagent only) and by subtraction of buffer injections from the binding responses. Association rate constant ka and dissociation rate constant kd for the binding reaction were determined using Biacore T200 Evaluation Software V2.0 for data processing and kinetic fitting. The data were globally fit with 1:1 binding model.

[2] = target: T2, human alpha CGRP (SEQ ID NO: 80) (human, not fully specified); assay: SPR, 37 C, mutein captured, CGRP analyte
T2 construct: also called human αCGRP; hαCGRP
T2 peptide: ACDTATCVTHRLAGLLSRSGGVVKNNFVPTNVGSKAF
Protocol: as §1, §2, §3

[3] = target: T3, rat beta CGRP (SEQ ID NO: 83) (rat, not fully specified); assay: SPR, 37 C, mutein captured, CGRP analyte
T3 construct: also called rat βCGRP; rat β-CGRP
T3 peptide: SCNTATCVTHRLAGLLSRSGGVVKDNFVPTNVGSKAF
Protocol: as §1, §2, §3

[4] = target: T4, human beta CGRP (SEQ ID NO: 81) (human, not fully specified); assay: SPR, 37 C, mutein captured, CGRP analyte
T4 construct: also called human βCGRP; hβCGRP
T4 peptide: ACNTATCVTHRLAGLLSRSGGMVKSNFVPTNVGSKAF
Protocol: as §1, §2, §3

[5] = target: T2, human alpha CGRP (SEQ ID NO: 80); assay: SPR as in Example 5
Protocol: as §1, §2

[6] = target: T4, human beta CGRP (SEQ ID NO: 81); assay: SPR as in Example 5
Protocol: as §1, §2

[7] = target: T2, human alpha CGRP (SEQ ID NO: 80); assay: cell-based or functional assay
[8] = target: T4, human beta CGRP (SEQ ID NO: 81); assay: cell-based or functional assay

Binder | Kd [1] [nM] | koff [1] [s⁻¹] | kon [1] [M⁻¹ s⁻¹] | Kd [2] [nM] | koff [2] [s⁻¹] | kon [2] [M⁻¹ s⁻¹] | Kd [3] [nM] | koff [3] [s⁻¹] | kon [3] [M⁻¹ s⁻¹] | Kd [4] [nM] | koff [4] [s⁻¹] | kon [4] [M⁻¹ s⁻¹] | Kd [5] [nM] | Kd [6] [nM] | cAMP assay IC50, SK-N-MC cells [7] [nM] | cAMP assay IC50, SK-N-MC cells [8] [nM]
lipocalin mutein SEQ ID NO: 12 (designed binder, biotinylated by NHS chemistry for capture in SPR) QDSTSDLIPAPPLSKVPLQQNFQDNQFHGKWYVVGWAGNTLLREDKDPPKMQATIYELKEDRSYNVTWVYFSEKKCNYHIETSVPGSQPGEFTLGTIQSHPGETPILVRVVSTNYNQHAMVFFKGMGQNREIFEITLYGRTKELTSELKENFIRFSKSLGLPENHIVFPVPIDQCIDGSAWSHPQFEK | 0.45 | 0.000299 | 661000 | 0.15 | 0.000162 | 1.08e+06 | 0.176 | 0.000205 | 1.17e+06 | 0.095 | 0.000104 | 1.1e+06 | – | – | – | –
lipocalin mutein SEQ ID NO: 9 (designed binder, biotinylated by NHS chemistry for capture in SPR) QDSTSDLIPAPPLSKVPLQQNFQDNQFHGKWYVVGWAGNTLLREDKDPIKMQATIYELKEDKSYDVTWVYLSEKKCNYHIETSVPGSQPGEFTLGTIKSYPGETSILVRVVSTNYNQHAMVFFKGMSQNREIFEITLYGRTKELASELKENFIRFSKSLGLPENHIVFPVPIDQCIDGSAWSHPQFEK | 0.26 | 0.000318 | 1.22e+06 | 0.044 | 0.000257 | 5.88e+06 | 0.075 | 0.000275 | 3.68e+06 | 0.027 | 0.000181 | 6.8e+06 | – | – | – | –
cysteine-free lipocalin mutein SEQ ID NO: 32 (designed binder, biotinylated by NHS chemistry for capture in SPR) QDSTSDLIPAPPLSKVPLQQNFQDNQFQGKWYVVGWAGNTLLREDKDPIKMQAMIYELKEDKSYNVTWVYFADKKMNYHIETFVPGSQPGEFTLGTIKSYPGETPILVRVVSTNYNQHAMVFFKGVNQNREIFEIVLYGRTKELTNELKENFIRFSKSLGLPENHIVFPVPIDQYIDGSAWSHPQFEK | – | – | – | – | – | – | – | – | – | – | – | – | 0.034 | 0.021 | 0.17 | 0.26
lipocalin mutein SEQ ID NO: 13 (designed binder, biotinylated by NHS chemistry for capture in SPR) QDSTSDLIPAPPLSKVPLQQNFQDNQFHGKWYVVGRAGNEELREDKDPQKMEATIYELKEDKSYNVTDVGFSEKKCIYVIHTFVPGSQPGEFTLGNIKSYPGVTSALVRVVSTNYNQHAMVFFKVVKQNRELFEITLYGRTKELTSELKENFIRFSKSLGLPENHIVFPVPIDQCIDGSAWSHPQFEK | 0.28 | 0.000525 | 1.85e+06 | 0.075 | 0.000436 | 5.82e+06 | 0.111 | 0.00035 | 3.16e+06 | 0.031 | 0.000366 | 1.18e+07 | – | – | – | –
lipocalin mutein SEQ ID NO: 21 (designed binder, biotinylated by NHS chemistry for capture in SPR) QDSTSDLIPAPPLSKVPLQQNFQDNQFHGKWYVVGRAGNDALREDKDPEKMEATIYELKEDKSYNVTDVGFVQKKCMYVIHTFVPGSQPGEFTLGNIKSYPGVTSALIRVVNTNYNQHAMVFVKLVKQNRELFEITLYGRTKELTSELKENFIRFSKSLGLPENHIVFPVPIDQCIDGSAWSHPQFEK | 0.053 | 3.7e-05 | 703000 | 0.014 | 1.71e-05 | 1.21e+06 | 0.018 | 2.36e-05 | 1.34e+06 | 0.004 | 8.74e-06 | 2.36e+06 | – | – | – | –
lipocalin mutein SEQ ID NO: 22 (designed binder, biotinylated by NHS chemistry for capture in SPR) QDSTSDLIPAPPLSKVPLQQNFQDNQFHGKWYVVGRAGNDALREDKDPEKMEATIYELKEDKSYNVTDVGLVQKKCMYVIHTFVPGGQPGEFTLGNIKSYPGVTSALVRVVSTNYNQHAMVFVKLVKQNRELFEITLYGRTKELTSELKENFIRFSKSLGLPENHIVFPVPIDQCIDGSAWSHPQFEK | 0.033 | 3.05e-05 | 931000 | 0.009 | 1.56e-05 | 1.76e+06 | 0.013 | 2.02e-05 | 1.6e+06 | 0.003 | 9.32e-06 | 2.7e+06 | – | – | – | –
lipocalin mutein SEQ ID NO: 16 (designed binder, biotinylated by NHS chemistry for capture in SPR) QDSTSDLIPAPPLSKVPLQQNFQDNQFHGKWYVVGRAGNDELREDKDPEKMEATIYELKEDKSYNVTDVGFVQKKCMYVIHTFVPGSQPGEFTLGNIKSYPGVTSGLVRVVSTNYNQHAMVFFKVVRQNRELFEITLYGRTKELTSELKENFIRFSKSLGLPENHIVFPVPIDQCIDGSAWSHPQFEK | 0.28 | 0.000398 | 1.41e+06 | 0.052 | 0.000259 | 5.02e+06 | 0.097 | 0.000229 | 2.37e+06 | 0.036 | 0.000364 | 1.01e+07 | – | – | – | –
